Experimental data: paper PMC7682986, “Talin-activated vinculin interacts with branched actin networks to initiate bundles” (eLife, 2020)

Target: T1, full-length human vinculin (human, UniProt P18206-2 1-1066, Alexa Fluor 488 maleimide on cysteines (30% Alexa488-labeled monomers in the TIRFM assay on patterns))
T1 construct: human vinculin, cDNA isolated from the human A431 cell line, PCR product of 1066 amino acids; FX cloning and 3C cleavage may leave a few extra residues at the ends; also called VCL; source: Sf9 insect cells (baculovirus), purified (Ni IMAC, 3C protease cleavage on the resin, Superdex 200); not shown: GFP, C-terminal, cleaved; 10xHis, C-terminal, cleaved
T1 sequence (looked up): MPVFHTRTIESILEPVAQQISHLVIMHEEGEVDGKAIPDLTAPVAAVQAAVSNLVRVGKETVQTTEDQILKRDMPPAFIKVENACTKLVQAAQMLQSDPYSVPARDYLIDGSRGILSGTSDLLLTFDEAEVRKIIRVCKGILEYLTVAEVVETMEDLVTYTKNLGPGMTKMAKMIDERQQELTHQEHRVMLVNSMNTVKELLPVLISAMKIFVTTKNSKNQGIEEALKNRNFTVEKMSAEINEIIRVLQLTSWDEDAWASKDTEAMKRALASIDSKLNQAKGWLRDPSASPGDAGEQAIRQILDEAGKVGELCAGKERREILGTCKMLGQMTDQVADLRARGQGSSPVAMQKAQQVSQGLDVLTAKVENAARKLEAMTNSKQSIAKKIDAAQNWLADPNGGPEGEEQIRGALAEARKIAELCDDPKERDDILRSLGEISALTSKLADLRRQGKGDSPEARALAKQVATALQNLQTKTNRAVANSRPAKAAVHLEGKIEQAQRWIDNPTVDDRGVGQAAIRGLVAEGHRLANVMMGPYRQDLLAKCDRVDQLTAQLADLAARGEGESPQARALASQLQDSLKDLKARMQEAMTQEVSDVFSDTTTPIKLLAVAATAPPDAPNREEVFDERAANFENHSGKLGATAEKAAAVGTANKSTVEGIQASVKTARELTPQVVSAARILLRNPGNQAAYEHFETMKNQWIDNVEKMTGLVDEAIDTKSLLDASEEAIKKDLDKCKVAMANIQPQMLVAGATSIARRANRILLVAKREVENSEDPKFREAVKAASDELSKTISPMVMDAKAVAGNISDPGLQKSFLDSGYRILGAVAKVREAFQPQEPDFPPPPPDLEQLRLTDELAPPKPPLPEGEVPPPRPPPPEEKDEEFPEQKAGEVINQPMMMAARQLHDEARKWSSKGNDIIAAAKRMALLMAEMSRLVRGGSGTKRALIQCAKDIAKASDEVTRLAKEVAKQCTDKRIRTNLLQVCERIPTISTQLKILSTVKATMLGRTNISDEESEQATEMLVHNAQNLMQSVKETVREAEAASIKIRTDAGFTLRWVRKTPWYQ
Test: TIRF microscopy on protein-coated micropatterns; micropatterns coated with 0.4 µM GST-talin VBS1 (control patterns with BSA); flow of 300 nM inactive vinculin (Alexa488), 0.3 µM actin, Arp2/3 complex and 80 nM WAVE WA; 20 mM Hepes pH 7.0, 40 mM KCl, 0.4% methylcellulose, 0.2% BSA
Conditions: both partners purified

- binding result: binds
B1: GST-talin VBS1 (human talin 1 vinculin-binding site 1, residues 482–636) (domain or fragment, UniProt Q9Y490 482-636, looked up)
chain: RGHMPPLTSAQQALTGTINSSMQAVQAAQATLDDFDTLPPLGQDAASKAWRKNKMDESKHEIHSQVDAITAGTASVVNLTAGDPAETDYTAVGCAVTTISSNLTEMSRGVKLLAALLEDEGGSGRPLLQAAKGLAGAVSELLRSAQPASAEPRQN
notes: construct from C; Le Clainche; Coated on micropatterns as GST-talin VBS1; also called GST-VBS1; VBS1-GST; source: E. coli BL21 (DE3)pLysS, purified (glutathione-Sepharose)
